Patent US20240279341A1 (Alector, published 2024)

B1: monovalent anti-MerTK antibody MTK-16.2 (antibody, V domains shown)
VH: QVQLVQSGSELKKPGASVKVSCKASGYTFTNHGMNWVRQAPGQGLEWMGWINTYTGEPTYADDFKGRFVFSLDTSVSTAYLQISSLKAEDTAVYYCARKGVTAARYFDYWGQGTLVTVSS
VL: DIQMTQSPSSLSASVGDRVTITCRASQNVRTAVAWYQQKPGKAPKRLIYLASNRHTGVPSRFSGSGSGTEFTLTISNLQPEDFATYYCLQHWNYPLTFGGGTKLEIK
B2: bivalent anti-MerTK antibody MTK-16.2 (full IgG) (antibody, V domains shown)
VH: B1 VH
VL: DIQMTQSPSSLSASVGDRVTITCRASQNVRTAVAWYQQKPGKAPKRLIYLASNRHTGVPSRFSGSGSGTEFTLTISNLQPEDFATYYCLQHWNYPLTFGGGTKLEIKR
B3: bispecific anti-MerTK MTK-16.2:anti-PDL1 antibody (bispecific antibody, V domains shown)
VH 1: B1 VH
VL 1: B1 VL
VH 2: not shown
VL 2: not shown
B4: monovalent anti-MerTK antibody MTK-33.11 (antibody, V domains shown)
VH: QVQLVQSGAEVKKPGASVKVSCKASGYTFTSYWMHWVRQAPGQGLEWIGVIDPSDNYINYNQKFQGRVTMTRDTSTSTVYMELSSLRSEDTAVYYCAREAWTRGYFDYWGQGTLVTVSS
VL: DIQMTQSPSSLSASVGDRVTITCQASRSVRNTVAWYQQKPGKAPKLLIYYASNRYTGVPSRFSGSGSGTDFTFTISSLQPEDIATYYCQQDYRSPFTFGQGTKLEIK
B5: bivalent anti-MerTK antibody MTK-33.11 (full IgG) (antibody, V domains shown)
VH: B4 VH
VL: DIQMTQSPSSLSASVGDRVTITCQASRSVRNTVAWYQQKPGKAPKLLIYYASNRYTGVPSRFSGSGSGTDFTFTISSLQPEDIATYYCQQDYRSPFTFGQGTKLEIKR
B6: bispecific anti-MerTK MTK-33.11:anti-PDL1 antibody (bispecific antibody, V domains shown)
VH 1: B4 VH
VL 1: B4 VL
VH 2: not shown
VL 2: not shown

Legend:
[1] = target: T1, recombinant cynomolgus MerTK extracellular domain (cynomolgus monkey, UniProt Q12866 21-505 (human entry)); assay: SPR (Carterra LSA), antibody immobilized, MerTK ECD as analyte; estimate, fits not ideal for a 1:1 model
T1 construct: also called cynoMerTK; cyno MerTK; not shown: PolyHis tag or TEVS/Thrombin/murine IgG2a Fc tag
T1 chain: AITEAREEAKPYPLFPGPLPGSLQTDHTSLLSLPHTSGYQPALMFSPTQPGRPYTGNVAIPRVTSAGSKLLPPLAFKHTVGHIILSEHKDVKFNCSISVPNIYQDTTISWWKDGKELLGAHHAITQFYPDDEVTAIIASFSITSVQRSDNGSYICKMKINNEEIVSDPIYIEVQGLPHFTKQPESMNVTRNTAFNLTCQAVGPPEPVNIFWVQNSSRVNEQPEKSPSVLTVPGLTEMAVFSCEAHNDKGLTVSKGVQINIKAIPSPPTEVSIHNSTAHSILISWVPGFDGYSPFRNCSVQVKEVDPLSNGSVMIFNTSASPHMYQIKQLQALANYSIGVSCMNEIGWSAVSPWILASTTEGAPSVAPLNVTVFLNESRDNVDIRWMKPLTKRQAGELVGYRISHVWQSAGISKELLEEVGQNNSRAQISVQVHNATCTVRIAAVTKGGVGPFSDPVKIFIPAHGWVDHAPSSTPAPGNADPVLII
Protocol: (§1) Binding kinetics of bispecific anti-MerTK:anti-PDL1 antibodies of the present disclosure to human, cyno, and murine MerTK were evaluated using a Carterra LSA instrument. […] A HC30 sensor chip (Carterra) was activated using the single channel flow cell with a 7-minute injection of a 1:1:1 mixture of 100 mM MES pH 5.5, 100 mM sulfo-NHS, 400 mM EDC (all reconstituted in MES pH 5.5; 100 μl of each mixed in vial immediately before running assay). After switching to the multi-channel array flow cell, the antibodies were injected over the activated chip in a 96-spot array for 15 minutes. A duplicate injection of the antibodies on a second block of the chip was spotted as before. The remaining unconjugated active groups on the chip were then blocked by injecting 1M Ethanolamine pH 8.5 (Carterra) for 7 minutes using the single channel flow cell.
(§2) After priming with running buffer (HBS-TE, Carterra) with 0.5 mg/ml BSA (Sigma), the immobilized anti-MerTK antibodies were tested for their ability to bind to several forms of recombinant MerTK extracellular domain, including that of human, cynomolgus, and mouse orthologs as described above. Estimates of affinity were generated by injecting each analyte over the entire antibody array using the single channel flow cell. […] Dissociation was followed for 300 seconds before regenerating after each injection with 2×30 seconds of 10 mM Glycine pH2.5. Three buffer blanks were run between each series (one species per series). After all concentrations of all three species of MerTK were injected, a duplicate set of injections was performed, so that each concentration for all three species was injected in widely spaced duplicates. Data were processed and analyzed using NextGenKIT high-throughput kinetics analysis software (Carterra).

[2] = target: T2, recombinant murine MerTK extracellular domain (mouse, UniProt Q60805 19-497); assay: SPR (Carterra LSA), antibody immobilized, MerTK ECD as analyte
T2 construct: also called moMerTK; mouse MerTK; not shown: PolyHis tag or TEVS/Thrombin/murine IgG2a Fc tag (a commercial human IgG1 Fc fusion is also mentioned); which form was t
T2 sequence: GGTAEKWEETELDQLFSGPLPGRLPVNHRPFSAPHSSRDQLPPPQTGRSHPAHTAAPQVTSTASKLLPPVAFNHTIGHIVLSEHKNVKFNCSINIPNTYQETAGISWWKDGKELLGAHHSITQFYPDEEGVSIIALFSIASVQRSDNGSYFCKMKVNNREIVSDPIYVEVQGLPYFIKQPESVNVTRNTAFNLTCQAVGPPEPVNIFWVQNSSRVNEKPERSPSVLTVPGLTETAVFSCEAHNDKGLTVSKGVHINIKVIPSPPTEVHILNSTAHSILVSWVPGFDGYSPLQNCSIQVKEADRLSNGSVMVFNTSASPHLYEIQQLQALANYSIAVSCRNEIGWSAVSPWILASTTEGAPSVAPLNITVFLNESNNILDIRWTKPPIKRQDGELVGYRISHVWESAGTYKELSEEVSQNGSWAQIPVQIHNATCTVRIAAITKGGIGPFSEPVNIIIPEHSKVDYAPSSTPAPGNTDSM
Protocol: as §1, §2

Row | Binder | Kd [1] [nM] | binding result [2]
1 | B1 | 60 | no binding
2 | B2 | 60 | no binding
3 | B3 | 30 | no binding
4 | B4 | 3 | 
5 | B5 | 2 | 
6 | B6 | 2 | 
